Here are results for two molecules from paper PMC4167889 (Molecular cell, 2009).

Data set [1] deals with recombinant wild-type p105, His-tagged (E. coli) (UniProt P25799). In words: SEC. In general terms: In gel filtration, larger molecules generally elute earlier.
Data set [2] deals with the molecule itself. In words: AUC.

On to “p50, the 50 kD N-terminal product of recombinant p105 (E. coli) (domain or fragment)”, for which the stoichiometry N (as a rule, a count of units in the complex or per binding partner) in data set [1] was 1.

B1: recombinant wild-type p105, His-tagged (E. coli) (natural protein, UniProt P25799-1 1-971, looked up)
chain: MADDDPYGTGQMFHLNTALTHSIFNAELYSPEIPLSTDGPYLQILEQPKQRGFRFRYVCEGPSHGGLPGASSEKNKKSYPQVKICNYVGPAKVIVQLVTNGKNIHLHAHSLVGKHCEDGVCTVTAGPKDMVVGFANLGILHVTKKKVFETLEARMTEACIRGYNPGLLVHSDLAYLQAEGGGDRQLTDREKEIIRQAAVQQTKEMDLSVVRLMFTAFLPDSTGSFTRRLEPVVSDAIYDSKAPNASNLKIVRMDRTAGCVTGGEEIYLLCDKVQKDDIQIRFYEEEENGGVWEGFGDFSPTDVHRQFAIVFKTPKYKDVNITKPASVFVQLRRKSDLETSEPKPFLYYPEIKDKEEVQRKRQKLMPNFSDSFGGGSGAGAGGGGMFGSGGGGGSTGSPGPGYGYSNYGFPPYGGITFHPGVTKSNAGVTHGTINTKFKNGPKDCAKSDDEESLTLPEKETEGEGPSLPMACTKTEPIALASTMEDKEQDMGFQDNLFLEKALQLARRHANALFDYAVTGDVKMLLAVQRHLTAVQDENGDSVLHLAIIHLHAQLVRDLLEVTSGLISDDIINMRNDLYQTPLHLAVITKQEDVVEDLLRVGADLSLLDRWGNSVLHLAAKEGHDRILSILLKSRKAAPLIDHPNGEGLNAIHIAVMSNSLPCLLLLVAAGAEVNAQEQKSGRTALHLAVEYDNISLAGCLLLEGDAHVDSTTYDGTTPLHIAAGRGSTRLAALLKAAGADPLVENFEPLYDLDDSWEKAGEDEGVVPGTTPLDMAANWQVFDILNGKPYEPVFTSDDILPQGDMKQLTEDTRLQLCKLLEIPDPDKNWATLAQKLGLGILNNAFRLSPAPSKTLMDNYEVSGGTIKELMEALQQMGYTEAIEVIQAAFRTPATTASSPVTTAQVHCLPLSSSSTRQHIDELRDSDSVCDSGVETSFRKLSFTESLTGDSPLLSLNKMPHGYGQEGPIEGKI
Take B1: the “stoichiometry N” value in data set [2] was 2.
